The record followed here is patent US20030003563, “Method of using a crystal of the N-terminal domain of a signal transducer and activator of transcription” (published 2003).

Data set [1] concerns the target STAT-1alpha wild type (transfected, U3A cells) (Homo sapiens, UniProt P42224 P42224:2-750). Briefly: cell_activity; IFN-gamma 5 ng/ml, 10 h, luciferase in U3A cells. The note with it: tags: pcDNA3 expression. Here is the method:
FIG. 4B show the effect of STAT-1 W37A mutation on interferon-γ (IFN-γ) stimulated gene activation in vivo. U3A cells that are lacking STAT-1 [Miller et al., EMBO J. 12:4221 (1993)] were transfected with expression clones containing either wild type or mutant STAT-1 (see Methods of the EXAMPLE, below) along with a luciferase reporter containing a tandem STAT binding site as an enhancer. After stimulation with IFN-γ for 10 hours, luciferase expression was determined spectroscopically (represented as bars). Cells transfected with the wild type protein show an about 2-fold increase in luciferase expression. […] Each bar represents ten individual parallel experiments. Error bars denote standard deviation from the mean.
Transient transfections were performed on six well plates with 50% confluent U3A cells using the calcium phosphate method as instructed by the manufacturer (Stratagene) with the following modifications. Transfection reactions contained per well 4.5 μg of either wild type STAT-1α or the W37A mutant in plasmid pcDNA3 (Invitrogen), 4 μg luciferase reporter plasmid pLuc, and 0.4 μg β-galactosidase reporter plasmid (Stratagene).
The luciferase reporter contained in its BamH1 site as an enhancer element two tandemly arranged “weak” STAT-1 binding sites (5′-[…]-3′, binding sites underlined) from the human c-fos promoter. […]

Data set [2] deals with STAT-1alpha W37A (Tyr-phosphorylated) (Homo sapiens, UniProt P42224 P42224:2-750, W37A). Description: EMSA; used to titrate active protein. The note with it: tags: C-terminal 6xHis; baculovirus insect cells; chain copies: 2 (dimer; stated). The source says:
(§1) Gel shift experiments and determination of tetramer stability were done as described [Vinkemeier et al., EMBO J. 15:5616 (1996)] with an oligonucleotide containing two copies of the STAT recognition element from the c-fos gene [Wagner et al., EMBO J. 9:4477 (1990)] spaced by 10 base pairs (5′-[…]-3′). Both protein preparations (Tyr-phosphorylated wild type STAT-1α and W37A mutant) were titrated in gel shift experiments with an oligonucleotide containing a single M67 site (5′-[…]-3′) [Wagner et al., EMBO J. 9:4477 (1990)] to assure similar loading of active protein. […] The time necessary to reach equilibrium was assessed by EMSA [(Stone et al., in Jost, J. P. & Saluz, H. P. (eds.) A Laboratory Guide to In Vitro Studies of Protein-DNA Interactions BioMethods, vol.5:163-195 (1991)]. For all DNA fragments tested, equilibrium turned out to be fully established at the earliest timepoint that can be determined by this technique (30 sec). Therefore incubation periods of 5-15 minutes were chosen. Reaction products were loaded onto a 4% polyacrylamide gel (1.5 mm thick) containing 0.25× Tris-borate-EDTA which had been pre-run at 20V/cm for 2 hours at 4° C. Electrophoresis was continued for 60 minutes at 4° C. Gels were dried and exposed to X-ray film and quantitated by a Molecular Dynamics Phospholmager.
Background: A gel shift assay detects complexes by their altered migration in electrophoresis.

The target in data set [3] is STAT-1alpha (Tyr-phosphorylated, wild type) (Homo sapiens, UniProt P42224 P42224:2-750). Description: EMSA; used to titrate active protein. To be noted: tags: in vitro Tyr-phosphorylated with EGF-receptor kinase; chain copies: 4 (two dimers on tandem site; stated).
Sequence of STAT-1alpha (Tyr-phosphorylated, wild type) (P42224 2-750, one chain of several): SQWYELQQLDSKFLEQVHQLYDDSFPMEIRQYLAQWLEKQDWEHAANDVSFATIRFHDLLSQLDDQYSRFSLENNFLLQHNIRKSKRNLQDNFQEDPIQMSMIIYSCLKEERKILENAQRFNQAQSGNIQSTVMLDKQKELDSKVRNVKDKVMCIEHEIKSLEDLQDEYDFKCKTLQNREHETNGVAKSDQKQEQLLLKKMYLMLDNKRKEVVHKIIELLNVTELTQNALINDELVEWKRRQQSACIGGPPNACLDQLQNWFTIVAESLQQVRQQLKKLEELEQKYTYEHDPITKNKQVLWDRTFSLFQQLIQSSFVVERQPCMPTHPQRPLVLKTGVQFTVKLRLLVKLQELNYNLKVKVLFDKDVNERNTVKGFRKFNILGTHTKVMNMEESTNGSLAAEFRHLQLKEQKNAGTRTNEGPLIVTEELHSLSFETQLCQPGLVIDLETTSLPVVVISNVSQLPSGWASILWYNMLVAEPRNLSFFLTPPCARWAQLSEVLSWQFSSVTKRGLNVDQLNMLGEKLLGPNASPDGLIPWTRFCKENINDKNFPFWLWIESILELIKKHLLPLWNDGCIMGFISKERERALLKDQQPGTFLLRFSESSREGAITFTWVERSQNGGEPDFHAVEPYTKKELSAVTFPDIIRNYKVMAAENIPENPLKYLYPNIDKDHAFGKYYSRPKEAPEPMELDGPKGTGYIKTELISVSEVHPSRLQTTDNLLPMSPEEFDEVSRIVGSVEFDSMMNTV
From the text: as §1

Sequence of STAT-1alpha wild type (transfected, U3A cells) (P42224 2-750, one chain of several): as above
Sequence of STAT-1alpha W37A (Tyr-phosphorylated) (P42224 2-750 W37A, one chain of several): as the sequence (P42224 2-750, one chain of several) above, with W36A counted along it

B1: luciferase reporter enhancer with two weak STAT-1 sites (dsDNA)
DNA 1: GATCAGTTCCCGTCAATCATGATCCAGTTCCCGTCAATGATCCCCGGGATC
DNA 2: GATCCCGGGGATCATTGACGGGAACTGGATCATGATTGACGGGAACTGATC
Regarding B1, the activity in data set [1] was approximately 2 fold induction.

B2: single M67 site (dsDNA)
DNA 1: GCCGATTTCCCGTAAATCAT
DNA 2: ATGATTTACGGGAAATCGGC
In the case of B2, the binding result in data set [2] and in data set [3] was “binds” in each case.
